{"source": "patent US20140093526A1", "about": "(RESEARCH FOUNDATION FOR MICROBIAL DISEASES OF OSAKA …, published 2014)", "key": {"[1]": {"target": "T1, HHV-6B glycoprotein Q1 (gQ1), full length, wild type (human herpesvirus 6B (HHV-6B), UniProt Q9QJ11 25-488)", "T1 construct": "Viral envelope glycoprotein; Tested in lysates of HHV-6B (HST strain)-infected cells (immunoprecipitation) and expressed from plasmid in 293T cells (IFA), alone or with gQ2; also called HHV-6B gQ1; BgQ1", "assay": "co-expression in cells"}, "[2]": {"target": "T2, HHV-6B gQ1 point mutant C487W E488Q (human herpesvirus 6B (HHV-6B), UniProt Q9QJ11 25-486)", "T2 construct": "Expressed in 293T cells; W is used here", "assay": "IFA with KH-1 on 293T cells expressing the point mutant"}, "[3]": {"target": "T3, HHV-6B gQ1 point mutant E488Q G489V (human herpesvirus 6B (HHV-6B), UniProt Q9QJ11 25-487)", "T3 construct": "Expressed in 293T cells", "assay": "IFA with KH-1 on 293T cells expressing the point mutant"}, "[4]": {"target": "T4, HHV-6B gQ1 carboxy-terminal deletion mutant, position 1 to position 483 (human herpesvirus 6B (HHV-6B), UniProt Q9QJ11 25-483)", "T4 construct": "Expressed in 293T cells together with gQ2; also called gQ1 1-483", "T4 chain": "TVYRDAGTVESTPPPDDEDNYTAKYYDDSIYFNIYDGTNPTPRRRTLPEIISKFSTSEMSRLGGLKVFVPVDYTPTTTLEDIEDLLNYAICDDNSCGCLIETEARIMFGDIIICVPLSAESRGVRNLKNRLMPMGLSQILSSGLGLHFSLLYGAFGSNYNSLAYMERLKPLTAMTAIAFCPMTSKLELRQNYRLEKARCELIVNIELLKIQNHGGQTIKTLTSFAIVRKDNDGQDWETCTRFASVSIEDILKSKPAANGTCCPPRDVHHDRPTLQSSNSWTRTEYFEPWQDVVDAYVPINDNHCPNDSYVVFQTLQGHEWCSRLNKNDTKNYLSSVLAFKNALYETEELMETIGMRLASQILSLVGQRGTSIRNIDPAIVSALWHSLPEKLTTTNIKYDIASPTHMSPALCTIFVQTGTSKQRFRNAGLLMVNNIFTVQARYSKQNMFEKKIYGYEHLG", "assay": "IFA on 293T cells co-transfected with the gQ1 mutant and gQ2"}, "[5]": {"target": "T5, HHV-6B gQ1 carboxy-terminal deletion mutant, position 1 to position 466 (human herpesvirus 6B (HHV-6B), UniProt Q9QJ11 25-466)", "T5 construct": "Expressed in 293T cells together with gQ2; also called gQ1 1-466", "T5 chain": "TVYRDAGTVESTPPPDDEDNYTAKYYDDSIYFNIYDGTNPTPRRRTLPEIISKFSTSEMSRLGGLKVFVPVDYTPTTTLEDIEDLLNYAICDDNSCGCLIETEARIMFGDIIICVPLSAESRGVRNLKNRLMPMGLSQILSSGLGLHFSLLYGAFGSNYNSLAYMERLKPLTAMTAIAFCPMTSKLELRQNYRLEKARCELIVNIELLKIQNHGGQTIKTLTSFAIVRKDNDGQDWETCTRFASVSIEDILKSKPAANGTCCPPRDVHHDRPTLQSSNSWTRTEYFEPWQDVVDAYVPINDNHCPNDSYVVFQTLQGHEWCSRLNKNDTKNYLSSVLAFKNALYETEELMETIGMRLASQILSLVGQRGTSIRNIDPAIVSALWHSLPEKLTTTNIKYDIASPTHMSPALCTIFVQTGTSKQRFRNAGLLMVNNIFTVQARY", "assay": "IFA on 293T cells co-transfected with the gQ1 mutant and gQ2"}, "[6]": {"target": "T6, HHV-6B gQ1 carboxy-terminal deletion mutant, position 1 to position 451 (human herpesvirus 6B (HHV-6B), UniProt Q9QJ11 25-451)", "T6 construct": "Expressed in 293T cells together with gQ2; also called gQ1 1-451", "T6 chain": "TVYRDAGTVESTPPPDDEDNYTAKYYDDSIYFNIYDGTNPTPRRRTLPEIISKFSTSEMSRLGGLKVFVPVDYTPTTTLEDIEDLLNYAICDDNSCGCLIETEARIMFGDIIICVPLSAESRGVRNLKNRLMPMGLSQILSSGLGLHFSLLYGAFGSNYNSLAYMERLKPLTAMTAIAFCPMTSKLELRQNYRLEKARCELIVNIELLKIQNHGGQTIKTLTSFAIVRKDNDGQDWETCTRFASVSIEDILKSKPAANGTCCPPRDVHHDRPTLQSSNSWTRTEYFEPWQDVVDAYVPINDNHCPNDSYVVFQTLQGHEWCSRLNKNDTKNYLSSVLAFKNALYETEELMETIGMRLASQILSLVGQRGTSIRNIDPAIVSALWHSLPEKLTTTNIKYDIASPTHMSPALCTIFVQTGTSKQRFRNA", "assay": "IFA on 293T cells co-transfected with the gQ1 mutant and gQ2"}}, "data": [{"binder": "HHV-6B glycoprotein Q2 (gQ2) (other, Co-expressed with gQ1 from plasmid in cells (293T); also called HHV-6B gQ2; BgQ2) LPFFSTLPKITSCCDHYVVLNSLSSVSSSTPTCLDGEILFQNAGQKFCRPFTDNRTIVYTMQDQVQRPWSVTWMDFNLVISDYGRAVIENLTESAMSAHKNGPRYLQMETFISDLFRYECHRDNRYVLEKKLQMFYPTTHMNELLFYPSDPTLPSPYGNGHY", "values": [{"measurement": "binding result", "setting": "[1]", "value": "binds"}]}, {"binder": "monoclonal antibody KH-1 (anti-HHV-6B gQ1 neutralizing antibody) (antibody, V domains shown, Mouse (BALB/c) hybridoma antibody; also called MAb KH-1; anti-gQ1 monoclonal antibody KH-1) VH: EVQLQQSGPELEKPGASVKISCKASGYSFTGYNMNWVKQSNGKRLEWIGNIDPYYGGASYNQKFKGKATLTVDKSSTTAYMQLQSLTSEDSAVYYCARGGYGRYFDVWGAGTAVTVSS VL: QIVLTQSPAIMSASPGEKVTMTCSASSSISYMHWYQQKPGTSPKRWIYDTSKLASGVPARFSGSGSGTSYSLTISNMESEDAATYYCHQRSRYHTFGGGTRLEIKR", "values": [{"measurement": "binding result", "setting": "[2]", "value": "no binding"}, {"measurement": "binding result", "setting": "[3]", "value": "no binding"}, {"measurement": "binding result", "setting": "[4]", "value": "no binding"}, {"measurement": "binding result", "setting": "[5]", "value": "no binding"}, {"measurement": "binding result", "setting": "[6]", "value": "no binding"}]}]}
